Here are results for 108 sequences from the supplement of paper PMC9942255.

“And” between values parts separate entries of the source, which are not always exact repeats. Equal values may be shown once.

This data set deals with Bacillus subtilis DB104 (SP-AmyQ fusion secretion). Kind of data set: AmyQ secretion efficiency, weighted average sort bin (1 = best secretion, 10 = worst) (bin number (weighted average, 1-10)); higher = lower secretion efficiency. A digest of the protocol: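 The secretion score gives the average bin number weighted by read frequency and normalised to beads per bin, with low-abundance sequences excluded. Bins were 10 equally populated green/red fluorescence ratio fractions of occupied ~65 nL alginate beads, sorted by large-particle flow cytometry. The beads held fluorescein-starch and about 0.3 cells each of an amyE-integrated B. subtilis DB104 library fusing designed signal peptides to mature AmyQ, and they were grown about 13 h at room temperature and stained with nile red before sorting and Illumina sequencing.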

MKSKGSIMACLILFSFTITTFINTETMSAFSN yielded an AmyQ secretion efficiency of 5.38.

Take MKSKGSIMACLILFSFTITTFINTETPSAFSN: the AmyQ secretion efficiency was 5.71.

For the sequence MKSKGSIMACLILFSFTITTFINTETRSAFSN, the AmyQ secretion efficiency was determined as 8.47.

As for MKSKGSIMACLILFSFTITTFINTETSSAFSN, the AmyQ secretion efficiency was found to be 3.41.

Take MKSKGSIMACLILFSFTITTFINTETSSVFTPISAFSN: the AmyQ secretion efficiency came to 6.5.

Take MKSKGSIMACLILFSFTITTFINTETTSAFSN: the AmyQ secretion efficiency is 5.51.

For MKSKGSIMACLILFSFTITTFINTETWSAFSN, the AmyQ secretion efficiency came out at 7.56.

The sequence MKSKGSIMACLILFSFTITTFINTGTISAFSN registered an AmyQ secretion efficiency of 4.33.

MKSKGSIMACLILFSFTITTFISVETISAFSN registered an AmyQ secretion efficiency of 5.39.

Sequence MKSKGSIMACLILFSFTITTTINTETISAFSN showed an AmyQ secretion efficiency of 5.95.

As for MKSKGSIMACLILFSFTITTVTFINTETISAFSN, the AmyQ secretion efficiency was determined as 5.25.

MKSKGSIMACLILFSFTTFINTETISAFSN had an AmyQ secretion efficiency of 4.68.

MKSKGSIMACRRKRRRTITTFINTETISAFSN came in with an AmyQ secretion efficiency of 6.8.

MKSKGSIMIFIFACLILFSFTITTFINTETISAFSN yielded an AmyQ secretion efficiency of 7.77.

Regarding MKSKGSIMKCQILFSFTITTFINTETISAFSN, the AmyQ secretion efficiency stood at 6.89.

In the case of MKSKGSIMSACLILFSFTITTFINTETISAFSN, the AmyQ secretion efficiency amounted to 3.07.

Sequence MKSKGSIMSCLILFSFTITTFINTETISAFSN yielded an AmyQ secretion efficiency of 3.29.

The sequence MKSKVKIAGVLTVAAAAMTAKMYATAKGN had an AmyQ secretion efficiency of 7.17.

Sequence MKSKWMRQKRLVAVGFSFTQVMVHAGET showed an AmyQ secretion efficiency of 8.54.

Regarding MKSKWMSGLLLVAVGFSFAIVMVHAGET, the AmyQ secretion efficiency came to 5.38.

As for MKSKWMSGLLLVAVGFSFIALFATQVMVHAGET, the AmyQ secretion efficiency worked out at 7.59.

MKSKWMSGLLLVAVGFSFITQVMVHAGET registered an AmyQ secretion efficiency of 6.13.

In turn, MKSKWMSGLLLVAVGFSFRKKKKKVHAGET showed an AmyQ secretion efficiency of 7.2.

As for MKSKWMSGLLLVAVGFSFRKKMVHAGET, the AmyQ secretion efficiency is 7.87.

MKSKWMSGLLLVAVGFSFTLFSSAVVSTQVMVHAGET registered an AmyQ secretion efficiency of 7.18.

MKSKWMSGLLLVAVGFSFTQVMAHAGET gave an AmyQ secretion efficiency of 7.06.

MKSKWMSGLLLVAVGFSFTQVMDHAGET registered an AmyQ secretion efficiency of 6.14.

On to MKSKWMSGLLLVAVGFSFTQVMEHAGET, for which the AmyQ secretion efficiency is 7.11.

MKSKWMSGLLLVAVGFSFTQVMFHAGET gave an AmyQ secretion efficiency of 6.46.

As for MKSKWMSGLLLVAVGFSFTQVMGGFFAVHAGET, the AmyQ secretion efficiency was found to be 7.03.

Sequence MKSKWMSGLLLVAVGFSFTQVMGHAGET showed an AmyQ secretion efficiency of 5.88.

As to MKSKWMSGLLLVAVGFSFTQVMHHAGET, the AmyQ secretion efficiency stood at 6.66.

Consider MKSKWMSGLLLVAVGFSFTQVMLHAGET, for which the AmyQ secretion efficiency was found to be 6.15.

MKSKWMSGLLLVAVGFSFTQVMNHAGET: the AmyQ secretion efficiency is 5.68.

Turning to MKSKWMSGLLLVAVGFSFTQVMSHAGET, the AmyQ secretion efficiency was 6.67.

Turning to MKSKWMSGLLLVAVGFSFTQVMTHAGET, the AmyQ secretion efficiency came to 7.1.

MKSKWMSGLLLVAVGFSFTQVMTSFFTPASPVHAGET showed an AmyQ secretion efficiency of 6.76.

In turn, MKSKWMSGLLLVAVGFSFTQVMVHADEE gave an AmyQ secretion efficiency of 6.6.

In turn, MKSKWMSGLLLVAVGFSFTQVMVHAGDE came in with an AmyQ secretion efficiency of 5.94.

As for MKSKWMSGLLLVAVGFSFTQVMVHAGET, the AmyQ secretion efficiency was 6.97 and 4.43 and 7.09.

MKSKWMSGLLLVAVGFSFTQVMVHAGRR registered an AmyQ secretion efficiency of 7.76.

In turn, MKSKWMSGLLLVAVGFSFTQVMVHAGTT gave an AmyQ secretion efficiency of 5.78.

MKSKWMSGLLLVAVGFSFTQVMVHARRR had an AmyQ secretion efficiency of 7.53.

As for MKSKWMSGLLLVAVGFSFTQVMVHCGET, the AmyQ secretion efficiency is 4.81.

With MKSKWMSGLLLVAVGFSFTQVMVHEGET, the AmyQ secretion efficiency stood at 5.54.

MKSKWMSGLLLVAVGFSFTQVMVHGGET came in with an AmyQ secretion efficiency of 7.46.

Sequence MKSKWMSGLLLVAVGFSFTQVMVHHGET displayed an AmyQ secretion efficiency of 6.33.

Turning to MKSKWMSGLLLVAVGFSFTQVMVHIGET, the AmyQ secretion efficiency stood at 5.32.

Take MKSKWMSGLLLVAVGFSFTQVMVHLGET: the AmyQ secretion efficiency amounted to 7.17.

Turning to MKSKWMSGLLLVAVGFSFTQVMVHNGET, the AmyQ secretion efficiency came to 8.98.

MKSKWMSGLLLVAVGFSFTQVMVHPGET: the AmyQ secretion efficiency amounted to 7.16.

The sequence MKSKWMSGLLLVAVGFSFTQVMVHQGET came in with an AmyQ secretion efficiency of 6.96.

As to MKSKWMSGLLLVAVGFSFTQVMVHSGET, the AmyQ secretion efficiency came to 6.94.

The sequence MKSKWMSGLLLVAVGFSFTQVMVHWGET had an AmyQ secretion efficiency of 5.88.

Consider MKSKWMSGLLLVAVGFSFTQVMWHAGET, for which the AmyQ secretion efficiency amounted to 7.01.

MKSKWMSGLLLVAVGFSFTQVMYHAGET: the AmyQ secretion efficiency is 7.02.

As to MKSKWMSGLLLVAVGFSFTSVMVHAGET, the AmyQ secretion efficiency amounted to 7.31.

As to MKSKWMSGLLLVAVGTQVMVHAGET, the AmyQ secretion efficiency is 5.76.

In turn, MKSKWMSRKLLVAVGFSFTQVMVHAGET yielded an AmyQ secretion efficiency of 6.44.

MKSKWMSRKRRVAVGFSFTQVMVHAGET came in with an AmyQ secretion efficiency of 6.31.

The sequence MKSKWQRKRRSGLLLVAVGFSFTQVMVHAGET displayed an AmyQ secretion efficiency of 6.49.

Consider MKSLPYTIALLFCGLIIVSMAAKGDED, for which the AmyQ secretion efficiency is 8.1.

Sequence MKSLPYTIALLFCGLIIVSMAAKGHED registered an AmyQ secretion efficiency of 7.33.

In turn, MKSLPYTIALLFCGLIIVSMAAKGHKK registered an AmyQ secretion efficiency of 6.13.

MKSLPYTIALLFCGLIIVSMAAKGHST [wt_52] displayed an AmyQ secretion efficiency of 6.6.

For the sequence MKSLPYTIALLFCGLIIVSMAAKGKKR, the AmyQ secretion efficiency stood at 7.49.

MKSRTIWTIILGALCIAVAYTLTKSQAGASSS showed an AmyQ secretion efficiency of 8.18.

On to MKSRTIWTIILGALLVCCIAVAYTLTKSQAGASSS, for which the AmyQ secretion efficiency is 5.1 and 5.65.

The sequence MKSRTIWTIILGALLVCCKKKKRTLTKSQAGASSS yielded an AmyQ secretion efficiency of 6.52.

Take “MKSRTIWTIILGALLVCSAASSCIAVAYTLTKSQAGASSS”: the AmyQ secretion efficiency is 6.64.

As to MKSSSSALLLLLFAFEPSASGKKL, the AmyQ secretion efficiency was determined as 7.85.

MKTKTFLFIFSAILTLSIFAPNETFAQTA gave an AmyQ secretion efficiency of 2.73.

MKTKTGFIFSAILTLSIFAPNETFAQTA: the AmyQ secretion efficiency amounted to 1.63.

With MKTKTLFIFSAILTFAPNETFAQTA, the AmyQ secretion efficiency amounted to 2.34.

The sequence MKTKTLFIFSAILTLSIEDEDEETFAQTA returned an AmyQ secretion efficiency of 5.99.

MKTKTLFIFSAILTLSIFAPNEAFAQTA had an AmyQ secretion efficiency of 1.47.

MKTKTLFIFSAILTLSIFAPNECFAQTA: the AmyQ secretion efficiency was 2.92.

MKTKTLFIFSAILTLSIFAPNEGFAQTA gave an AmyQ secretion efficiency of 3.32.

Consider MKTKTLFIFSAILTLSIFAPNEMFAQTA, for which the AmyQ secretion efficiency was found to be 1.9.

Sequence MKTKTLFIFSAILTLSIFAPNESFAQTA showed an AmyQ secretion efficiency of 2.17.

MKTKTLFIFSAILTLSIFAPNETFAQEE: the AmyQ secretion efficiency turned out to be 1.78.

In turn, MKTKTLFIFSAILTLSIFAPNETFAQRR displayed an AmyQ secretion efficiency of 1.31.

The sequence MKTKTLFIFSAILTLSIFAPNETFAQTK registered an AmyQ secretion efficiency of 1.96.

MKTKTLFIFSAILTLSIFAPNETFARRR returned an AmyQ secretion efficiency of 2.28.

In turn, MKTKTLFIFSAILTLSIFAPNEVFAQTA came in with an AmyQ secretion efficiency of 1.58.

Sequence MKTKTLFIFSAILTLSIFAPNTTFAQTA registered an AmyQ secretion efficiency of 2.

As for MKTKTLFIFSAILTLSIFASTITLSAFAPNETFAQTA, the AmyQ secretion efficiency came out at 3.01.

For MKTKTLFIFSAILTLSIQAPNETFAQTA, the AmyQ secretion efficiency worked out at 2.35.

As to MKTKTLFIFSAILTLSIRKPNRTFAQTA, the AmyQ secretion efficiency amounted to 6.8.

MKTKTLKRFSAILTLSIFAPNETFAQTA registered an AmyQ secretion efficiency of 3.24.

Sequence MKTLRNMLSTLCVLMILSGVIFFGLKIDAKDI gave an AmyQ secretion efficiency of 6.22.

In turn, MKTLRSRCYKGILSGVIFFGLKIDAKDI gave an AmyQ secretion efficiency of 6.82.

With MKTLRTKCRKKILSGVIFFGLKIDAKDI, the AmyQ secretion efficiency stood at 6.97.

MKTLRTLCVLMILSGVIFFGLKCDAKDI had an AmyQ secretion efficiency of 4.31.

As to MKTLRTLCVLMILSGVIFFGLKDIDAKDI, the AmyQ secretion efficiency came out at 6.44.

On to MKTLRTLCVLMILSGVIFFGLKIDADDD, for which the AmyQ secretion efficiency is 6.82.

The sequence MKTLRTLCVLMILSGVIFFGLKIDCKDI returned an AmyQ secretion efficiency of 5.37.

In turn, MKTLRTLCVLMILSGVIFFGLKIDRKDI yielded an AmyQ secretion efficiency of 5.46.

In turn, MKTLRTLCVLMILSGVIFFGLKIDVKDI had an AmyQ secretion efficiency of 6.52.

Regarding MKTLRTLCVLMILSGVIFFGLKLDAKDI, the AmyQ secretion efficiency worked out at 7.62.

Turning to MKTLRTLCVLMILSGVIFFGLKYDAKDI, the AmyQ secretion efficiency came to 5.31.

Sequence MKTPKGMLLSTAAGLLLSLTATSVSAHYV had an AmyQ secretion efficiency of 5.33.

For the sequence MKVCQKSIKRFLVSLIIGTFVISVPFMANAQSD, the AmyQ secretion efficiency is 1.93.

MKVCQKSIRFLVSLIIGTFVISVPFMANAQSD: the AmyQ secretion efficiency was found to be 1.22.

MKVCQKSIVRFKRRKRRGTFVISVPFMANAQSD showed an AmyQ secretion efficiency of 7.96.

With MKVCQKSIVRFLVFLIIFLFVIGTSVPFMANAQSD, the AmyQ secretion efficiency came to 2.68.

For MKVCQKSIVRFLVSLIIGTFVIRKKFMANAQSD, the AmyQ secretion efficiency amounted to 6.59.

MKVCQKSIVRFLVSLIIGTFVISVPFMANAEED: the AmyQ secretion efficiency is 3.09.
